To fix the notation:
B1: TRIM55 (parent)
chain: FQASNPYLPTRGGTTMASGGRFRC
B2: SOAT1 (parent)
chain: PSNGRIDIKQLIAKKIKLTAEAEE
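Further: lentivirally expressed fusions sorted by FACS into six bins by GFP to DsRed ratio, PSI derived from sequencing read proportions per bin multiplied by bin number.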

In one series the parent is B1. Put plainly: protein stability index of a GFP-peptide fusion (GPS, HEK-293T) (PSI 1-6); higher = more stable. The settings on record: c terminus: a fixed tail appended.
Consider FQASNPYLPTRGGTTMASGGRYRC [F22Y], for which the protein stability index is 2.47.
As to FQASNPYLPTRGGTTMASGGRWRC [F22W], the protein stability index is 2.51.
The same measure, in the same setting: next, FQASNPYLPTRGGTTMASGGRVRC [F22V]: 1.38.
Regarding FQASNPYLPTRGGTTMASGGRPRC [F22P], the protein stability index is 3.87.
Turning to FQASNPYLPTRGGTTMASGGRERC [F22E], the protein stability index is 2.46.
In the case of FQASNPYLPTRGGTTMASGGRSRC [F22S], the protein stability index was found to be 1.75.
On to FQASNPYLPTRGGTTMASGGRTRC [F22T], for which the protein stability index was 1.8.
As for FQASNPYLPTRGGTTMASGGRMRC [F22M], the protein stability index was 2.25.
As to FQASNPYLPTRGGTTMASGGRQRC [F22Q], the protein stability index amounted to 3.22.
On the same count and under the same terms, next, FQASNPYLPTRGGTTMASGGRHRC [F22H]: 2.29; FQASNPYLPTRGGTTMASGGRGRC [F22G]: 1.43.
Take FQASNPYLPTRGGTTMASGGRCRC [F22C]: the protein stability index came out at 2.18.
Same read-out and setting: the same measure for FQASNPYLPTRGGTTMASGGRIRC [F22I]: 1.57; for FQASNPYLPTRGGTTMASGGRKRC [F22K]: 2.61.
With FQASNPYLPTRGGTTMASGGRARC [F22A], the protein stability index stood at 1.42.
Turning to FQASNPYLPTRGGTTMASGGRRRC [F22R], the protein stability index is 2.13.
In the case of FQASNPYLPTRGGTTMASGGRDRC [F22D], the protein stability index was 1.41.
Turning to FQASNPYLPTRGGTTMASGGRNRC [F22N], the protein stability index is 2.14.
Consider FQASNPYLPTRGGTTMASGGRFRP [C24P], for which the protein stability index worked out at 1.41.
The same measure, in the same setting: next, FQASNPYLPTRGGTTMASGGRFRN [C24N]: 3.51.
For FQASNPYLPTRGGTTMASGGRFRA [C24A], the protein stability index turned out to be 2.21.
As to FQASNPYLPTRGGTTMASGGRFRY [C24Y], the protein stability index was 1.62.
Take FQASNPYLPTRGGTTMASGGRFRF [C24F]: the protein stability index was 2.23.
Same read-out and setting: next, FQASNPYLPTRGGTTMASGGRFRR [C24R]: 1.5; FQASNPYLPTRGGTTMASGGRFRK [C24K]: 2.47.
For the variant FQASNPYLPTRGGTTMASGGRFRE [C24E], the protein stability index stood at 2.51.
Turning to FQASNPYLPTRGGTTMASGGRFRD [C24D], the protein stability index came out at 2.6.
Regarding FQASNPYLPTRGGTTMASGGRFRV [C24V], the protein stability index amounted to 1.76.
As to FQASNPYLPTRGGTTMASGGRFRG [C24G], the protein stability index turned out to be 2.19.
Consider FQASNPYLPTRGGTTMASGGRFRM [C24M], for which the protein stability index was found to be 1.37.
FQASNPYLPTRGGTTMASGGRFRH [C24H]: the protein stability index came to 2.08.
Still for that read-out and setting: next, FQASNPYLPTRGGTTMASGGRFRS [C24S]: 1.43; FQASNPYLPTRGGTTMASGGRFRQ [C24Q]: 2.22.
Still for that read-out and setting: the same measure for FQASNPYLPTRGGTTMASGGRFRT [C24T]: 2; for FQASNPYLPTRGGTTMASGGRFRI [C24I]: 2.03; for FQASNPYLPTRGGTTMASGGRFRW [C24W]: 1.94.
Same read-out and setting: the same measure for FQASNPYLPTRGGTTMASGGRFRL [C24L]: 1.57; for FQASNPYLPTRGGTTMASGGRFNC [R23N]: 1.48.
Consider FQASNPYLPTRGGTTMASGGRFAC [R23A], for which the protein stability index is 2.37.
Consider FQASNPYLPTRGGTTMASGGRFEC [R23E], for which the protein stability index was 1.99.
Still for that read-out and setting: the same measure for FQASNPYLPTRGGTTMASGGRFKC [R23K]: 2.1; for FQASNPYLPTRGGTTMASGGRFTC [R23T]: 1.64.
As for FQASNPYLPTRGGTTMASGGRFVC [R23V], the protein stability index is 1.88.
In the case of FQASNPYLPTRGGTTMASGGRFSC [R23S], the protein stability index was 1.8.
Consider FQASNPYLPTRGGTTMASGGRFFC [R23F], for which the protein stability index worked out at 1.51.
Regarding FQASNPYLPTRGGTTMASGGRFPC [R23P], the protein stability index stood at 2.91.
With FQASNPYLPTRGGTTMASGGRFIC [R23I], the protein stability index amounted to 1.62.
Consider FQASNPYLPTRGGTTMASGGRFMC [R23M], for which the protein stability index is 1.61.
For FQASNPYLPTRGGTTMASGGRFGC [R23G], the protein stability index was 1.6.
The same measure, in the same setting: the same measure for FQASNPYLPTRGGTTMASGGRFDC [R23D]: 2.02; for FQASNPYLPTRGGTTMASGGRFCC [R23C]: 2.9; for FQASNPYLPTRGGTTMASGGRFYC [R23Y]: 2.5.
Turning to FQASNPYLPTRGGTTMASGGRFQC [R23Q], the protein stability index turned out to be 1.71.
Consider FQASNPYLPTRGGTTMASGGRFLC [R23L], for which the protein stability index turned out to be 2.98.
Still for that read-out and setting: next, FQASNPYLPTRGGTTMASGGRFHC [R23H]: 1.56.
Consider FQASNPYLPTRGGTTMASGGTFRC [R21T], for which the protein stability index is 1.04.
On the same count and under the same terms, the same measure for FQASNPYLPTRGGTTMASGGYFRC [R21Y]: 1.68; for FQASNPYLPTRGGTTMASGGSFRC [R21S]: 1.75; for FQASNPYLPTRGGTTMASGGVFRC [R21V]: 1.42.

In the next series the parent is B2. Described as above. The settings on record: c terminus: a fixed tail appended.
Regarding PMNGRIDIKQLIAKKIKLTAEAEE [S2M], the protein stability index is 3.11.
On the same count and under the same terms, next, PCNGRIDIKQLIAKKIKLTAEAEE [S2C]: 3.26.
Same read-out and setting: next, PINGRIDIKQLIAKKIKLTAEAEE [S2I]: 3.33; PGNGRIDIKQLIAKKIKLTAEAEE [S2G]: 3.64.
With PENGRIDIKQLIAKKIKLTAEAEE [S2E], the protein stability index was found to be 3.46.
In the case of PDNGRIDIKQLIAKKIKLTAEAEE [S2D], the protein stability index came out at 4.03.
Consider PRNGRIDIKQLIAKKIKLTAEAEE [S2R], for which the protein stability index was 3.08.
Consider PHNGRIDIKQLIAKKIKLTAEAEE [S2H], for which the protein stability index worked out at 3.01.
PKNGRIDIKQLIAKKIKLTAEAEE [S2K]: the protein stability index was determined as 2.58.
The same measure, in the same setting: next, PNNGRIDIKQLIAKKIKLTAEAEE [S2N]: 3.61; PANGRIDIKQLIAKKIKLTAEAEE [S2A]: 2.88; PPNGRIDIKQLIAKKIKLTAEAEE [S2P]: 3.35.
For the variant PQNGRIDIKQLIAKKIKLTAEAEE [S2Q], the protein stability index came to 3.63.
PLNGRIDIKQLIAKKIKLTAEAEE [S2L]: the protein stability index turned out to be 3.09.
Turning to PTNGRIDIKQLIAKKIKLTAEAEE [S2T], the protein stability index came to 3.79.
PFNGRIDIKQLIAKKIKLTAEAEE [S2F]: the protein stability index stood at 2.94.
For the variant HSNGRIDIKQLIAKKIKLTAEAEE [P1H], the protein stability index came to 3.24.
As to MSNGRIDIKQLIAKKIKLTAEAEE [P1M], the protein stability index was 3.1.
Turning to DSNGRIDIKQLIAKKIKLTAEAEE [P1D], the protein stability index stood at 3.27.
Regarding RSNGRIDIKQLIAKKIKLTAEAEE [P1R], the protein stability index was 3.35.
FSNGRIDIKQLIAKKIKLTAEAEE [P1F]: the protein stability index amounted to 3.22.
YSNGRIDIKQLIAKKIKLTAEAEE [P1Y]: the protein stability index turned out to be 3.62.
TSNGRIDIKQLIAKKIKLTAEAEE [P1T]: the protein stability index turned out to be 3.64.
GSNGRIDIKQLIAKKIKLTAEAEE [P1G]: the protein stability index stood at 3.33.
Consider SSNGRIDIKQLIAKKIKLTAEAEE [P1S], for which the protein stability index came to 3.46.
As to NSNGRIDIKQLIAKKIKLTAEAEE [P1N], the protein stability index was determined as 3.14.
ASNGRIDIKQLIAKKIKLTAEAEE [P1A]: the protein stability index stood at 3.1.
On to ISNGRIDIKQLIAKKIKLTAEAEE [P1I], for which the protein stability index came to 3.57.
Regarding KSNGRIDIKQLIAKKIKLTAEAEE [P1K], the protein stability index stood at 3.04.
Regarding CSNGRIDIKQLIAKKIKLTAEAEE [P1C], the protein stability index came out at 2.86.
Still for that read-out and setting: next, ESNGRIDIKQLIAKKIKLTAEAEE [P1E]: 2.65; QSNGRIDIKQLIAKKIKLTAEAEE [P1Q]: 3.23; LSNGRIDIKQLIAKKIKLTAEAEE [P1L]: 3.06.
In the case of VSNGRIDIKQLIAKKIKLTAEAEE [P1V], the protein stability index was 2.98.
With WSNGRIDIKQLIAKKIKLTAEAEE [P1W], the protein stability index turned out to be 2.92.

(Values after the supplement of paper PMC10567573.)
